Target: K-TM protein used for the affinity measurement with hFL (human)
Test: BLI; method not given; BLI is the only affinity method that the paper describes (Octet R8, SA chip, PBST); who was immobilised is not said

hFL lectin (mannose-binding lectin, human recombinant protein)
Kd: 49.5 nM

From publication PMC12767058
